For one series, the target named is T1, HNRNPH1 full-length (UniProt P31943 1-449).
T1 sequence: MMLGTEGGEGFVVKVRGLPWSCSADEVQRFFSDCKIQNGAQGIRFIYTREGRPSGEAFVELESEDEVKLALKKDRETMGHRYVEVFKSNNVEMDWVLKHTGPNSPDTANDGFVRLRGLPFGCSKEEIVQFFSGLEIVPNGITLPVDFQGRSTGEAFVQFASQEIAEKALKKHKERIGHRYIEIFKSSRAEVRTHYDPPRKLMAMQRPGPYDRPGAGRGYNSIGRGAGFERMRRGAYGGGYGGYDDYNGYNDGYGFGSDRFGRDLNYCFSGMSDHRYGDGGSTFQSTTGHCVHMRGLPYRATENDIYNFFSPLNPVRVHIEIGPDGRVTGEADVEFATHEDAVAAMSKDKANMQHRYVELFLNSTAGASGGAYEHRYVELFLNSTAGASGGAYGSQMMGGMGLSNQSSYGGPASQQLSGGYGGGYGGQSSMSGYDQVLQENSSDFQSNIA
In words: BLI; 150 mM KCl (G4); BLI: 10 mM Tris-HCl pH 7.4, 150 mM KCl, 0.005% P-20, 1 mM EDTA; EMSA: 10 mM Tris-HCl pH 7.4, 1 mM EDTA, 150 mM KCl, room temp, 3 nM RNA; FRET: same Tris/EDTA with 25 mM KCl, room temp. Conditions: protein: recombinant, tags: FLAG, label: 5'-biotin. For orientation: BLI is a label-free optical method that tracks binding on a fibre tip over time.

The target of a further series is T2, HNRNPF (UniProt P52597 1-415).
T2 sequence: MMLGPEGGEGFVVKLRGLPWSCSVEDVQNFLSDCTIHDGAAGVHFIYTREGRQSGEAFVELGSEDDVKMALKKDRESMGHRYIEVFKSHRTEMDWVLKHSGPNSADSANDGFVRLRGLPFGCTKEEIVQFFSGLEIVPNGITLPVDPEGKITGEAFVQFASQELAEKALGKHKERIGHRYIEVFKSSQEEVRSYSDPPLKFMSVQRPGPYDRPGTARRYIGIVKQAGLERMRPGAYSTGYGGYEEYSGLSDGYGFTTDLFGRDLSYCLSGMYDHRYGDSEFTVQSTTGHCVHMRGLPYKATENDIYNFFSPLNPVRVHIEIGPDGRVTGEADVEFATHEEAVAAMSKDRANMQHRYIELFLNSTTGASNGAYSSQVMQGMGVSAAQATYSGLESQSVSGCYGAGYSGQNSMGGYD
Nature of the series: BLI; 150 mM KCl; BLI: 10 mM Tris-HCl pH 7.4, 150 mM KCl, 0.005% P-20, 1 mM EDTA; EMSA: 10 mM Tris-HCl pH 7.4, 1 mM EDTA, 150 mM KCl, room temp, 3 nM RNA; FRET: same Tris/EDTA with 25 mM KCl, room temp. As to conditions: protein: recombinant; label: 5'-biotin; parallel two-tier G4, intramolecular.

Another series addresses T3, HNRNPH1 qRRM1-2 (UniProt P31943 11-188).
T3 sequence: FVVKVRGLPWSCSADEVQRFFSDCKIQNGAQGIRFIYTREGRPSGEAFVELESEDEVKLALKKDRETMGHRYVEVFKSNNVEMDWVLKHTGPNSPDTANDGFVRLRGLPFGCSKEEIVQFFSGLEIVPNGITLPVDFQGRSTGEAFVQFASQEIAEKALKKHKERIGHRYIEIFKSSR
Described as above. As to conditions: protein: recombinant; label: 5'-biotin; parallel two-tier G4, intramolecular.

The mark [1] stands for this setting: parallel two-tier G4, intramolecular.

B1: rG2 (structured_RNA)
RNA: GGUGGGCGGGGAGGAGGACGCGGUGGAAU
One may read the Kd as the free concentration of one partner at which half of the binding sites on the other are occupied at equilibrium, for simple one-to-one binding. In the case of B1, in the series with HNRNPH1 full-length (parallel two-tier G4), the Kd was 3.1 ± 0.7 nM.

B2: rG3 (structured_RNA)
RNA: GGGCGGGGAGGAGGACGCGGUGGAAUGGG
As to B2, the Kd with HNRNPF stood at 0.35 nM; in the series with HNRNPH1 qRRM1-2, 4 ± 0.7 nM; with HNRNPH1 full-length (setting [1]), 1.39 ± 0.54 nM.

B3: rG1 (structured_RNA)
RNA: ACCGGGGCAGGGGAAGAGGGGGAUU
Turning to B3, the figures for the Kd with HNRNPF, with HNRNPH1 qRRM1-2 and with HNRNPH1 full-length (setting [1]) were 0.34 nM, 6 ± 0.8 nM and 1.08 ± 0.53 nM, respectively.
